The target in test [1] is T1, dog SIGLEC15 on CHO-S-dSIGLEC15 cells (dog).
T1 chain: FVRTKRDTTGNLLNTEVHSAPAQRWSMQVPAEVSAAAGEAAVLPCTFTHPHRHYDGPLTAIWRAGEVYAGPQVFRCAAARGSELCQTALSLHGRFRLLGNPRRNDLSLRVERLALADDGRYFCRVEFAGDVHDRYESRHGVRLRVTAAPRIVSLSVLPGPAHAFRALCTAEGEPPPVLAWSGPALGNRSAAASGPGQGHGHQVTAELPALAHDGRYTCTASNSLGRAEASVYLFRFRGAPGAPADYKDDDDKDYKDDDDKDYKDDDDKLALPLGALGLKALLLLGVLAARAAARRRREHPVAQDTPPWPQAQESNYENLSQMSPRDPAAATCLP
Put plainly: flow cytometry, CHO-S cells expressing the target. On the procedure: (§1) CHO-S-hSIGLEC15 cells, CHO-S-mSIGLEC15 cells, CHO-S-fasSIGLEC15 cells or CHO-S-dSIGLEC15 cells were transferred to a 96-well plate at a density of 5×10⁴ cells/well respectively. Serially diluted sample anti-SIGLEC15 antibodies were added to the 96-well plate, and incubated at 4° C. for 30 min. Then, the cells were incubated with the secondary antibody anti-hIgG-Fc-Alex Flour 647 (RL1-H) (Jackson ImmunoResearch Laboratories, Inc., 109-606-170) at 4° C. in the dark for 15 minutes before flow cytometry analysis.
For orientation: Flow cytometry measures light scatter and fluorescence of single cells or particles in a stream.

Test [2] has as its target T2, mouse SIGLEC15 on CHO-S-mSIGLEC15 cells (mouse).
T2 chain: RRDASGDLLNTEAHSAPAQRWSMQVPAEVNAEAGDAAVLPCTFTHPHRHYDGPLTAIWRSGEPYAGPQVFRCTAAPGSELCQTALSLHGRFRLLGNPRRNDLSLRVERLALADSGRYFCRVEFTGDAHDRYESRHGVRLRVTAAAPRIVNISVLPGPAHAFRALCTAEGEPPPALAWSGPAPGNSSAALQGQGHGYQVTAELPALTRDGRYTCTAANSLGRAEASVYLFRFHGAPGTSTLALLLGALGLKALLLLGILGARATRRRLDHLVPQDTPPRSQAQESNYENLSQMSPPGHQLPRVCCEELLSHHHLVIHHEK
Put plainly: flow cytometry, CHO-S cells expressing the target. On the procedure: as §1

The target in test [3] is T3, human SIGLEC15 on CHO-S-hSIGLEC15 cells (human, UniProt Q6ZMC9 20-328).
T3 sequence: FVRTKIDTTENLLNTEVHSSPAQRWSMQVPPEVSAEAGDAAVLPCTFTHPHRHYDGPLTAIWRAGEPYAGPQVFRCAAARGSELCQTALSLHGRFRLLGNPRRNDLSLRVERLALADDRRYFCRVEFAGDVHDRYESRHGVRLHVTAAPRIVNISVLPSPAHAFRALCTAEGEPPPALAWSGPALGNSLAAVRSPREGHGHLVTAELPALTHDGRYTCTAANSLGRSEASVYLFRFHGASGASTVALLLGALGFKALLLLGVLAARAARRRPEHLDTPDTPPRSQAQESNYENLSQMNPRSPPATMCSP
The test can be described thus: flow cytometry, CHO-S cells expressing the target. On the procedure: as §1

In test [4] the target is T3, human SIGLEC15 on CHO-S-hSIGLEC15 cells. Put plainly: flow cytometry (MFI) on CHO-S-hSIGLEC15 cells; antibody sample: 40° C. 7 d. The protocol:
(§2) In the activity detection experiment, 30 μL of CHO-S-hSIGLEC15 cells were added to the culture plate, and the antibody to be tested was added in a gradient dilution ([…]), and incubated at 4° C. for 30 min. The plate was washed with PBS, and diluted secondary antibody Anti-hIgG-Fc-Alex Flour 647 (RL1-H) (1:2000) was added, incubated at 4° C. for 30 min. The plate was washed once with PBS and the cells were resuspended for flow cytometry detection. MFI value was derived by FlowJo 7.6.1 analysis to calculate EC50.

Test [5] shares this target. Put plainly: flow cytometry (MFI) on CHO-S-hSIGLEC15 cells; antibody sample: freeze 1. The protocol: as §2
In test [6] the target is T4, His-tagged mouse SIGLEC15 protein (mSIGLEC15-His, ACROBiosystems Inc., Cat #: SG5-M52H7) (mouse).
T4 construct: Bought protein; not shown: His tag
T4 chain: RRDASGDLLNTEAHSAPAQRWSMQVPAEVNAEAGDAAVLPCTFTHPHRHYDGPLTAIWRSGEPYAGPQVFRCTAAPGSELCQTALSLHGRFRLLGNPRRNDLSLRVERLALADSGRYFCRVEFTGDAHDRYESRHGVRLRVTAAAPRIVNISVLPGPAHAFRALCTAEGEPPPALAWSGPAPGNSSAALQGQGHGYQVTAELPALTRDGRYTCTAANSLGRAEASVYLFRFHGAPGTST
Put plainly: SPR (Biacore 8K), antibody captured on Protein A chip, His-tagged SIGLEC15 as analyte. On the procedure:
(§3) Purified anti-SIGLEC15 antibodies was captured on the Protein A chip (Series S Sensor Chip Protein A) for the detection. […] The flow rate was 30 μL/min, the binding and dissociation time were set to 180 s and 600 s, respectively. The chip was regenerated after the last injection of each titration with a glycine solution (pH 2.0) at 30 μL/min for 30 seconds.
(§4) Kinetic association rates (kon) and dissociation rates (koff) were obtained simultaneously by fitting the data globally to a 1:1 Langmuir binding model (Karlsson, R. Roos, H. Fagerstam, L. Petersson, B., 1994. Methods Enzymology 6. 99-110) using Biacore™ 8K Evaluation Software 3.0. Affinities were deduced from the quotient of the kinetic rate constants (KD=koff/kon). As a person of ordinary skill in the art would understand, the same method with appropriate adjustments for parameters (e.g., antibody concentration) was performed for each tested antibody.
Background: In SPR one partner is held on a chip, and binding of the other changes the refractive index at the surface.

Test [7] concerns the target T5, His-tagged human SIGLEC15 protein (hSIGLEC15-His, Novoprotein Scientific Inc., Cat #: CW37) (human, UniProt Q6ZMC9 20-263).
T5 construct: Bought protein; not shown: His tag
T5 sequence: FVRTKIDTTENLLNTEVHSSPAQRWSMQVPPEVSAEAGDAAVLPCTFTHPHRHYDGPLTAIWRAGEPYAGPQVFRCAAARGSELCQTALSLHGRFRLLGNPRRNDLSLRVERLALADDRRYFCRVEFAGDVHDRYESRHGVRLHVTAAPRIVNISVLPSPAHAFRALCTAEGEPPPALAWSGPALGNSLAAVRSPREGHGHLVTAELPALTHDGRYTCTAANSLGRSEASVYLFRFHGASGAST
The description is as above. The protocol: as §3, §4

B1: anti-SIGLEC15 antibody 10A7 (antibody, human IgG1, V domains shown)
VH: EVQLVQSGGGLVQPGGSLRLSCAASGFTFSNYEMNWVRQAPGKGLEWISYISNSGSTIYYADSVKGRFTISRDDAKNSLYLQMNSLRAEDTAVYYCAREDYDSSGYYWFDPWGQGTPVTVSS
VL: DIQLTQSPSSVSASVGDRVTITCRASQGISSWLAWYQQKPGKAPKLLIYAASSLQSGVPSRFSGSGSGTDFTLTINSLQPEDFATYYCQQTNSFPLTFGGGTKVEIK
As to B1, the “Percentage of Positive Cells” value is 22.8% in test [1], 38.5% in test [2] and 17.9% in test [3].

B2: anti-SIGLEC15 antibody 10C9 (antibody, human IgG1, V domains shown)
VH: QVQLVQSGAEVKKPGATVKVSCKASGYTFTNYGFSWVRQAPGQGLEWMGWINTYNDNTNYAQKFQGRVTMTTDTSTSTAYMELRSLRSDDTAVYYCARDGLWFGELPHYFDYWGQGTLVTVSS
VL: DIQLTQSPLSSPVTLGQPASISCRSSQSLVNSDGETFLSWLQQRPGQPPRLLIYKISNRFSGVPDRFSGSGAGTDFTLKISRVEAEDVGVYYCMQATQFPHTFGQGTKLEIK
The term EC50 denotes the concentration at which the effect is half-maximal. A low value points to greater potency. One may read the Kd as the constant that tells how readily two partners part at equilibrium. Read a high Kd as weaker binding. As usually defined, the koff is the rate constant with which the complex falls apart. Read a high koff as a short-lived complex. Broadly, the kon is a measure of how fast the partners come together. As for B2, the EC50 amounted to 0.6 µg/mL in test [4] and 0.62 µg/mL in test [5]. Further, the “Percentage of Positive Cells” value in test [1] amounted to 37.3%; in test [2], 29.3%; in test [3] it was 16.3%. Also, the dissociation constant (Kd) in test [6] amounted to 2170 pM; in test [7] it was 0.0846 pM. For the same molecule, the figures for the off-rate (koff) in test [6] and in test [7] were 0.00253 s⁻¹ and 2.23e-07 s⁻¹, respectively. The results for the association rate constant (kon) in test [6] and in test [7] were 1.17e+06 M⁻¹ s⁻¹ and 2.63e+06 M⁻¹ s⁻¹, respectively.

B3: anti-SIGLEC15 antibody 23F4 (antibody, human IgG1, V domains shown)
VH: QVQLQQWGAGLLKPSETLSLTCAVYGGSFSGYFWSWIRQPPGKGLEWIGEINHSGSTNYNPSLKSRVTLSVDTSKNQFSLKLSSVTAADTAVYYCAREGDSSSWGNWFDPWGQGTLVTVSS
VL: EIVLTQSPGTLSLSPGERATLSCRASQSVSSSYLAWYQQKPGQAPRFLIYGASSRATGIPDRFSGSGSGTDFTLTISRLEPEDFAVYYCQQFGNSPLTFGGGTKVEIK
Turning to B3, the half-maximal effective concentration (EC50) in test [4] turned out to be 0.111 µg/mL; in test [5] it was 0.125 µg/mL. For the same molecule, the results for the “Percentage of Positive Cells” value in test [1], in test [2] and in test [3] were 24.6%, 40.5% and 25.6%, respectively. The Kd worked out at 1970 pM in test [6] and 0.164 pM in test [7]. Further, the values for the off-rate constant (koff) in test [6] and in test [7] were 0.00126 s⁻¹ and 6.85e-07 s⁻¹, respectively. For the same molecule, the figures for the kon in test [6] and in test [7] were 639000 M⁻¹ s⁻¹ and 4.19e+06 M⁻¹ s⁻¹, respectively.
